# Experimental data taken from article PMC10397247.
# B1: 4H3858-bH (peptide)
# chain: DKNQELKKKIEELERENWELEKEIQELKR
# B2: O1 (peptide)
# chain: DKNAALKAENAALEYEIAALEAEIAALEG
# B3: 4H1082-AA (peptide)
# chain: DENAALEAEIAALEAKNAALKAEIAALKG
# B4: 4H1338-bA (peptide)
# chain: DENAQLEQKIAELEQKNAELKWEIAQLKQ
# What was measured:
# [1] = molecular target: T1, 4H3858-bH; test: two-hybrid library CCNG1;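 note: natural log of median RNA to DNA barcode read ratio; higher means stronger binding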
# T1 chain: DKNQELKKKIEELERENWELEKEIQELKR
# [2] = molecular target: T2, 4H3974-bH; test: two-hybrid library CCNG1;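 note: natural log of median RNA to DNA barcode read ratio; higher means stronger binding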
# T2 chain: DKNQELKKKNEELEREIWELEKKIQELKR
# [3] = molecular target: T3, 4H570-bH; test: two-hybrid library CCNG1;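 note: natural log of median RNA to DNA barcode read ratio; higher means stronger binding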
# T3 chain: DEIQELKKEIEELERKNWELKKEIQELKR
# [4] = molecular target: T4, 4H850-bH; test: two-hybrid library CCNG1;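 note: natural log of median RNA to DNA barcode read ratio; higher means stronger binding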
# T4 chain: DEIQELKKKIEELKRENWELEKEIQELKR
# [5] = molecular target: T5, O1; test: two-hybrid library CCNG1;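 note: natural log of median RNA to DNA barcode read ratio; higher means stronger binding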
# T5 chain: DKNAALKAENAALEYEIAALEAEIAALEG
# [6] = molecular target: T6, O10; test: two-hybrid library CCNG1;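 note: natural log of median RNA to DNA barcode read ratio; higher means stronger binding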
# T6 chain: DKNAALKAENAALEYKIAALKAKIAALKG
# [7] = molecular target: T7, O11; test: two-hybrid library CCNG1
# T7 chain: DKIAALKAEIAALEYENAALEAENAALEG
# [8] = molecular target: T8, O12; test: two-hybrid library CCNG1
# T8 chain: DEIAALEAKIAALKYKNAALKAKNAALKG
# [9] = molecular target: T9, O13; test: two-hybrid library CCNG1
# T9 chain: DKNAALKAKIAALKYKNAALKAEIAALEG
# [10] = molecular target: T10, O14; test: two-hybrid library CCNG1
# T10 chain: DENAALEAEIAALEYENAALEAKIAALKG
# [11] = molecular target: T11, O15; test: two-hybrid library CCNG1
# T11 chain: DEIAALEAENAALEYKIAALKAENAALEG
# [12] = molecular target: T12, O16; test: two-hybrid library CCNG1
# T12 chain: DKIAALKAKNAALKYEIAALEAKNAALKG
# [13] = molecular target: T13, O2; test: two-hybrid library CCNG1
# T13 chain: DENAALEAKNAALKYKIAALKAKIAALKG
# [14] = molecular target: T14, O3; test: two-hybrid library CCNG1
# T14 chain: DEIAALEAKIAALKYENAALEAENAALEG
# [15] = molecular target: T15, O4; test: two-hybrid library CCNG1
# T15 chain: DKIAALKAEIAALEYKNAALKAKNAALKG
# [16] = molecular target: T16, O5; test: two-hybrid library CCNG1
# T16 chain: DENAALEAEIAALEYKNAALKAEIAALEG
# [17] = molecular target: T17, O6; test: two-hybrid library CCNG1
# T17 chain: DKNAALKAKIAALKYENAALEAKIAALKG
# [18] = molecular target: T18, O7; test: two-hybrid library CCNG1
# T18 chain: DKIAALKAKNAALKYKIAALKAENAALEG
# [19] = molecular target: T19, O8; test: two-hybrid library CCNG1
# T19 chain: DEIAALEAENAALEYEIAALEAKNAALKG
# [20] = molecular target: T20, O9; test: two-hybrid library CCNG1
# T20 chain: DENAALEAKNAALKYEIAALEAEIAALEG
# [21] = molecular target: T21, 4H1082-AA; test: two-hybrid library CCmax
# T21 chain: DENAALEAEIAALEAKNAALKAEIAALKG
# [22] = molecular target: T22, 4H1103-AA; test: two-hybrid library CCmax; settings: mean of both orientations
# T22 chain: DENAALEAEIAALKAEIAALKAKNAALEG
# [23] = molecular target: T23, 4H1198-AA; test: two-hybrid library CCmax; settings: mean of both orientations
# T23 chain: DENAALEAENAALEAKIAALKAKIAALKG
# [24] = molecular target: T24, 4H1350-AA; test: two-hybrid library CCmax; settings: mean of both orientations
# T24 chain: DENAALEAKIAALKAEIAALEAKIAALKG
# [25] = molecular target: T25, 4H1405-AA; test: two-hybrid library CCmax; settings: mean of both orientations
# T25 chain: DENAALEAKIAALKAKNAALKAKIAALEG
# [26] = molecular target: T26, 4H2211-AA; test: two-hybrid library CCmax; settings: mean of both orientations
# T26 chain: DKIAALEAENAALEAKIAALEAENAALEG
# [27] = molecular target: T27, 4H2238-AA; test: two-hybrid library CCmax; settings: mean of both orientations
# T27 chain: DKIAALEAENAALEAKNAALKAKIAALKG
# [28] = molecular target: T28, 4H2513-AA; test: two-hybrid library CCmax; settings: mean of both orientations
# T28 chain: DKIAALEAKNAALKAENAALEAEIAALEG
# [29] = molecular target: T29, 4H2536-AA; test: two-hybrid library CCmax; settings: mean of both orientations
# T29 chain: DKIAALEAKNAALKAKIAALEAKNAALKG
# [30] = molecular target: T30, 4H2608-AA; test: two-hybrid library CCmax; settings: mean of both orientations
# T30 chain: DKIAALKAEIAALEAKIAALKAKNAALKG
# [31] = molecular target: T31, 4H2614-AA; test: two-hybrid library CCmax; settings: mean of both orientations
# T31 chain: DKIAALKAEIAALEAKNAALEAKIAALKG
# [32] = molecular target: T32, 4H2726-AA; test: two-hybrid library CCmax; settings: mean of both orientations
# T32 chain: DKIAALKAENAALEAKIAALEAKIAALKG
# [33] = molecular target: T33, 4H2935-AA; test: two-hybrid library CCmax; settings: mean of both orientations
# T33 chain: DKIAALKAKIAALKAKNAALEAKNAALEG
# [34] = molecular target: T34, 4H327-AA; test: two-hybrid library CCmax; settings: mean of both orientations
# T34 chain: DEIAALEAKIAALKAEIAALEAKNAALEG
# [35] = molecular target: T35, 4H3605-AA; test: two-hybrid library CCmax; settings: mean of both orientations
# T35 chain: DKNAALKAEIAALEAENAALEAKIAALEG
# [36] = molecular target: T36, 4H3625-AA; test: two-hybrid library CCmax; settings: mean of both orientations
# T36 chain: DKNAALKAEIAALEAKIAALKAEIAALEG
# [37] = molecular target: T37, 4H3664-AA; test: two-hybrid library CCmax; settings: mean of both orientations
# T37 chain: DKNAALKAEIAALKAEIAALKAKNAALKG
# [38] = molecular target: T38, 4H369-AA; test: two-hybrid library CCmax; settings: mean of both orientations
# T38 chain: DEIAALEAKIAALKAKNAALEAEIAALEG
# [39] = molecular target: T39, 4H3922-AA; test: two-hybrid library CCmax; settings: mean of both orientations
# T39 chain: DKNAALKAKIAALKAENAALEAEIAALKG
# [40] = molecular target: T40, 4H4033-AA; test: two-hybrid library CCmax; settings: mean of both orientations
# T40 chain: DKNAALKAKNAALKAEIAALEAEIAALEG
# [41] = molecular target: T41, 4H481-AA; test: two-hybrid library CCmax; settings: mean of both orientations
# T41 chain: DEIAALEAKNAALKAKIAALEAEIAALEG
# [42] = molecular target: T42, 4H55-AA; test: two-hybrid library CCmax; settings: mean of both orientations
# T42 chain: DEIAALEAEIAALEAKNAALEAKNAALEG
# [43] = molecular target: T43, 4H629-AA; test: two-hybrid library CCmax
# T43 chain: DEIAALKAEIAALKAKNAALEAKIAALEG
# [44] = molecular target: T44, 4H662-AA; test: two-hybrid library CCmax; settings: mean of both orientations
# T44 chain: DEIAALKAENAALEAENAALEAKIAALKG
# [45] = molecular target: T45, 4H1338-bA; test: two-hybrid library CCNG1
# T45 chain: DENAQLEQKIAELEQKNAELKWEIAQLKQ
# [46] = molecular target: T46, 4H1348-bA; test: two-hybrid library CCNG1
# T46 chain: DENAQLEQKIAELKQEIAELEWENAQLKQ
# [47] = molecular target: T47, 4H1373-bA; test: two-hybrid library CCNG1
# T47 chain: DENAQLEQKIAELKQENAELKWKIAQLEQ
# [48] = molecular target: T48, 4H1449-bA; test: two-hybrid library CCNG1
# T48 chain: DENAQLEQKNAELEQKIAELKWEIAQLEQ
# [49] = molecular target: T49, 4H1544-bA; test: two-hybrid library CCNG1
# T49 chain: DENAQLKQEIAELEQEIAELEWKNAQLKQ
# [50] = molecular target: T50, 4H1710-bA; test: two-hybrid library CCNG1
# T50 chain: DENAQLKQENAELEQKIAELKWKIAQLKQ
# [51] = molecular target: T51, 4H1899-bA; test: two-hybrid library CCNG1
# T51 chain: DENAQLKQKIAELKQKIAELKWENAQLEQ
# [52] = molecular target: T52, 4H1985-bA; test: two-hybrid library CCNG1
# T52 chain: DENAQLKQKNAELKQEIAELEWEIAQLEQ
# [53] = molecular target: T53, 4H3613-bA; test: two-hybrid library CCNG1
# T53 chain: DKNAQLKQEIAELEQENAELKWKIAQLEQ
# [54] = molecular target: T54, 4H3628-bA; test: two-hybrid library CCNG1
# T54 chain: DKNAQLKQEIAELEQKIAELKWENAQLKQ
# [55] = molecular target: T55, 4H3817-bA; test: two-hybrid library CCNG1
# T55 chain: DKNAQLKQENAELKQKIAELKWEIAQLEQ
# [56] = molecular target: T56, 4H3858-bA; test: two-hybrid library CCNG1
# T56 chain: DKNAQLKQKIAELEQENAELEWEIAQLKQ
# [57] = molecular target: T57, 4H3974-bA; test: two-hybrid library CCNG1
# T57 chain: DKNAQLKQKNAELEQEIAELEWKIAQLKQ
# [58] = molecular target: T58, 4H570-bA; test: two-hybrid library CCNG1
# T58 chain: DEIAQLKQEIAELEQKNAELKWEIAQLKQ
# [59] = molecular target: T59, 4H850-bA; test: two-hybrid library CCNG1
# T59 chain: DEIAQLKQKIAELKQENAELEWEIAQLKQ
binder,measurement,setting,value
B1,interaction score,[1],1.05
same,interaction score,[2],-0.677
same,interaction score,[3],1.32
same,interaction score,[4],-0.759
same,interaction score,[5],-0.992
B2,interaction score,[6],-1.12
same,interaction score,[7],-2.38
same,interaction score,[8],-2.35
same,interaction score,[9],-1.26
same,interaction score,[10],-2.4
same,interaction score,[11],-2.03
same,interaction score,[12],-2.54
same,interaction score,[5],-2.12
same,interaction score,[13],1.45
same,interaction score,[14],-2.08
same,interaction score,[15],-2.08
same,interaction score,[16],-2.09
same,interaction score,[17],-2.86
same,interaction score,[18],-2.15
same,interaction score,[19],-2.46
same,interaction score,[20],-1.83
B3,interaction score,[21],-0.277
same,interaction score,[22],-1.29
same,interaction score,[23],-0.589
same,interaction score,[24],0.509
same,interaction score,[25],-1.13
same,interaction score,[26],-0.726
same,interaction score,[27],-1.2
same,interaction score,[28],-0.261
same,interaction score,[29],-1.58
same,interaction score,[30],1.21
same,interaction score,[31],0.814
same,interaction score,[32],-0.0246
same,interaction score,[33],-1.5
same,interaction score,[34],-0.938
same,interaction score,[35],1.35
same,interaction score,[36],-0.987
same,interaction score,[37],-1.83
same,interaction score,[38],-0.173
same,interaction score,[39],2.18
same,interaction score,[40],-0.637
same,interaction score,[41],-1.09
same,interaction score,[42],-1.89
same,interaction score,[43],-0.619
same,interaction score,[44],-0.82
B4,interaction score,[45],-0.0383
same,interaction score,[46],-0.532
same,interaction score,[47],-0.825
same,interaction score,[48],-0.906
same,interaction score,[49],-0.0537
same,interaction score,[50],-1.12
same,interaction score,[51],-0.794
same,interaction score,[52],0.203
same,interaction score,[53],0.511
same,interaction score,[54],-0.607
same,interaction score,[55],-0.561
same,interaction score,[56],1.87
same,interaction score,[57],1.12
same,interaction score,[58],-0.499
same,interaction score,[59],1.4
